The experiment deals with human rhinovirus serotype HRV-39. In words: cell-based or functional assay.

For “IC1-5D/IgA (ICAM/IgA fusion, gift of Dr. Tim Springer; Martin, et al., 1993) (Fc fusion)”, the IC50, CPE assay amounted to 0.12 µg/mL and the fold lower IC50 than soluble ICAM-1, CPE assay worked out at 11.3 fold. Substance “soluble ICAM-1 (from UniProt P05362 28-480) (receptor)” displayed an IC50, CPE assay of 1.35 µg/mL.

(Values after patent EP1922329B1.)
